Values belong to the molecule of their own block, whether it stands above or below them.
Tests used:
[1] = target: T1, Xyl43Nc (Neocallimastix californiae, UniProt A0A1Y2A0L6); experiment: product inhibition of 4-nitrophenyl xyloside hydrolysis, […] nm, curve fit; type: biochemical; details: competitive, xylose 0-10 mM, substrate 4-nitrophenol-xylopyranoside 0.25-7.5 mM
T1 construct: E. coli BL21 pLysS (DE3); HisTrap and Sephacryl S-200
T1 sequence (A0A1Y2A0L6 1-326): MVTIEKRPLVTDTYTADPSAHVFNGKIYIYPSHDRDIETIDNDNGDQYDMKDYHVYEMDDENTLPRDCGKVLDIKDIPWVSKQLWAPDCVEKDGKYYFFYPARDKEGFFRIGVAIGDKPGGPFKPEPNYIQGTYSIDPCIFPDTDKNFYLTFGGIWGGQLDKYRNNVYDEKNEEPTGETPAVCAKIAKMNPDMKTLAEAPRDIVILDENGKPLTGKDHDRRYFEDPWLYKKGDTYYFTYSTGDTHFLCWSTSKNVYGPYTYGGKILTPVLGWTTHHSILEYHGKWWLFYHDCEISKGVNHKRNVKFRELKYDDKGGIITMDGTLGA

[2] = substrate: O=[N+]([O-])c1ccc(O[C@@H]2OC[C@@H](O)[C@H](O)[C@H]2O)cc1; experiment: purified protein; type: biochemical, Neocallimastix californiae; details: pH 6, 32 °C, no added metal

- Ki [1]: 6.11 mM
Molecule: OC1OC[C@@H](O)[C@H](O)[C@H]1O (stereo partly shown) [xylose]

B1: Xyl43Nc (Neocallimastix californiae) (protein)
chain: T1 sequence (A0A1Y2A0L6 1-326)
notes: E. coli BL21 pLysS (DE3); HisTrap and Sephacryl S-200
- Km [2]: 720 µM
- Vmax [2]: 47 µmol/min/mg
- kcat [2]: 29.3 s⁻¹
